# According to publication PMC2841437:
# Assays:
# [1] = molecular target: activated GST fusion protein of full-length human Akt1 (T308D/S473D) (human) (UniProt P31749); assay: pull-down
# [2] = molecular target: activated GST fusion protein of full-length human Akt1 (T308D/S473D) (human) (UniProt P31749); assay: other fluorescence titration
# Chain of UniProt P31749 (P31749 whole entry T308D/S473D, the tested form may be a part): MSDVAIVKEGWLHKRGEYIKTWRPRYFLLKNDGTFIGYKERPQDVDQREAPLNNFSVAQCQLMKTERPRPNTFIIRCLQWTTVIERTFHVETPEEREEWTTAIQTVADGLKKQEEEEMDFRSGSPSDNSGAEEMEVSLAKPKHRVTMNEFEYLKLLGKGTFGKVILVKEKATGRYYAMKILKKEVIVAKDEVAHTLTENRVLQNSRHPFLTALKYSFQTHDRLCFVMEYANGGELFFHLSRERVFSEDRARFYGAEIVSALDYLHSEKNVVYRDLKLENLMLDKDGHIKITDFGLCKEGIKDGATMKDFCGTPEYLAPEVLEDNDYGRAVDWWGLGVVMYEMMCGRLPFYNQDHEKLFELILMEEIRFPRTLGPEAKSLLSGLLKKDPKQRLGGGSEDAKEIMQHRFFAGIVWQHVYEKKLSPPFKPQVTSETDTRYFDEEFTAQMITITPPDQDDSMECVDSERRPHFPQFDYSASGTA
percentage of recovery [1],Kd [2],Substance
31.7%,,GSK-3α/β fusion protein
,1.2 nM,T7-tagged CBP CH3 fragment with T1872A (from UniProt P45481 1756-1878) (domain or fragment)
,4.07 nM,T7-tagged CBP CH3 fragment with T1872D (from UniProt P45481 1756-1878) (domain or fragment)
